# Measurements taken from patent publication US20230348616A1 (MIE UNIVERSITY, published 2023).
# B1: NYZ-1010 (bispecific antibody, human IgG1, lambda, L234A L235A)
# chain 1: not shown
# chain 2: not shown
# light: NFMLTQPSSVSGVPGQRVTISCTGNTGNIGSNYVNWYQQLPGTAPKLLIYRDDKRPSGVPDRFSGSKSGTSASLAITGFQAEDEADYYCQSYSSGFIFGGGTKLTVLGQPKAAPSVTLFPPSSEELQANKATLVCLISDFYPGAVTVAWKADSSPVKAGVETTTPSKQSNNKYAASSYLSLTPEQWKSHRSYSCQVTHEGSTVEKTVAPTECS
# B2: NYC-0008 (scFv)
# scFv: GEVQLVESGGGVVQPGGSLRLSCEASGFIFDDYAMHWVRQAPGKGLEWVSLISGDGDIIYYADSVKGRFTISRDNSKNSLYLQMNSLIIEDTALYYCAKDWVFGVVMTHYWYFGLDVWGQGTTVTVSSGGGGSGGGGSGGGGSDIQMTQSPSSLSASEGDRVTITCRASQSISTYLNWYQQKPGKAPKLLIYGASSLQSGVPSRFSGSGSGTDFTLTISSLQPEDFATYYCQQSYSTPPITFGQGTKVEIKGAAAGAGGDYKDDDDKGAAAHHHHHH
# notes: Captured by anti-His antibody in SPR; also called scFv of mAb28105P
# Assays:
# [1] = target: HLA-A2/NY-ESO peptide complex presented on cells (human); experiment: cell-based or functional assay
# 1F = target: T1, 1F (human); experiment: flow cytometry, CD3e knockout T2 cells pulsed with 50 µM peptide, antibody at 100 nM, PE anti-human IgG; gMFI standardized to the HLA/peptide amount; DMSO-only cells 1.15
# T1 construct: cell surface; also called HLA-A2 / point-mutant NY-ESO peptide 1F complex on CD3e knockout T2 cells
# Method: (§1) The cells were washed 2 times in PBS containing 5% FBS, PE conjugated F(ab′)2 Fragment Anti-Human IgG (Jackson Immuno Research Laboratories) diluted with PBS containing 5% FBS was added at 25 μl/well, and the resultant was allowed to stand at 4° C. for 30 minutes. The cells were washed 2 times in PBS containing 5% FBS, immobilized with Mildform 10 N (FUJIFILM Wako Pure Chemical Corporation) overnight, and resuspended in PBS containing 5% FBS. […] The cells were washed 2 times in PBS containing 5% FBS, immobilized with Mildform 10 N (FUJIFILM Wako Pure Chemical Corporation) overnight, and resuspended in PBS containing 5% FBS. The cell suspensions were subjected to detection using a flow cytometer (CantoII, Becton Dickinson). […] The standardized gMFI indicating the binding affinity of each Fc-conjugated anti-HLA-A2/NY-ESO-anti-CD3 bispecific molecule standardized with the amount of the HLA/peptide complex on the CD3e knockout T2 cells was determined in accordance with the following equation.
# gp100 [2] = target: T2, gp100 (human); experiment: as above
# T2 construct: cell surface; unrelated control peptide; also called HLA-A2 / gp100 peptide complex on CD3e knockout T2 cells
# Method: as §1
# [3] = target: T3, HLA-A2/NY-ESO peptide complex presented on cells (human); experiment: as above
# T3 construct: whole, on cells; also called HLA/NY-ESO; T2 cells supplemented with the NY-ESO peptide
# Method: as §1
# [4] = target: T4, HLA-A2 / homologous peptide P2RY8 complex on T2 cells (human); experiment: flow cytometry, CD3e knockout T2 cells pulsed with 50 µM peptide, antibody at 100 nM, PE anti-human IgG; gMFI standardized to the HLA/peptide amount; DMSO-only cells 1.19
# T4 construct: whole, on cells; also called T2 cells supplemented with homologous peptide P2RY8
# From the text: (§2) The cells were washed 2 times in PBS containing 5% FBS, immobilized with Mildform 10 N (FUJIFILM Wako Pure Chemical Corporation) overnight, and resuspended in PBS containing 5% FBS. The cell suspensions were subjected to detection using a flow cytometer (CantoII, Becton Dickinson). […] The standardized gMFI indicating the binding affinity of each Fc-conjugated anti-HLA-A2/NY-ESO-anti-CD3 bispecific molecule standardized with the amount of the HLA/peptide complex on the CD3e knockout T2 cells was determined in accordance with the following equation.
# (§3) The standardized gMFI indicating the binding affinity of each Fc-conjugated anti-HLA-A2/NY-ESO-anti-CD3 bispecific molecule standardized with the amount of the HLA/peptide complex on the CD3e knockout T2 cells was determined in accordance with the following equation.
# [5] = target: T5, HLA-A2 / homologous peptide DOLPP1 complex on T2 cells (human); experiment: as above
# T5 construct: whole, on cells; also called T2 cells supplemented with homologous peptide DOLPP1
# From the text: as §2, §3
# [6] = target: T6, HLA-A2 / homologous peptide PRKD2 complex on T2 cells (human); experiment: as above
# T6 construct: whole, on cells; also called T2 cells supplemented with homologous peptide PRKD2
# From the text: as §2, §3
# [7] = target: T7, HLA-A2 / homologous peptide CD163 complex on T2 cells (human); experiment: as above
# T7 construct: whole, on cells; also called T2 cells supplemented with homologous peptide CD163
# From the text: as §2, §3
# gp100 [8] = target: T2, gp100; experiment: as above
# From the text: as §2, §3
# [9] = target: T8, HLA-A2 / homologous peptide IL20RB complex on T2 cells (human); experiment: as above
# T8 construct: whole, on cells; also called T2 cells supplemented with homologous peptide IL20RB
# From the text: as §2, §3
# [10] = target: T3, HLA-A2/NY-ESO peptide complex presented …; experiment: as above
# From the text: as §2, §3
# [11] = target: T3, HLA-A2/NY-ESO peptide complex presented …; experiment: cell-based or functional assay; remark: listed apart in the source
# [12] = target: T9, HLA-A*0201/β2-microglobulin/NY-ESO peptide complex (human, biotinylated with E. coli biotin ligase at the added recognition sequence (biotinylated form used in the ELISA)); experiment: SPR (Biacore T200), bispecific captured by anti-human IgG (Fc) antibody, HLA/NY-ESO as analyte, single cycle kinetics
# T9 construct: also called HLA/NY-ESO; HLA-A2/NY-ESO
# Method: With the use of Biacore T200, various Fc-conjugated anti-HLA/NY-ESO-anti-CD3 bispecific molecules were captured as ligands to the immobilized anti-human IgG (Fc) antibody, and the antigen was assayed as an analyte. […] The anti-human IgG (Fc) antibody (Human antibody Capture kit, GE Healthcare) was immobilized on Sensor Chip CM5 (GE Healthcare) in accordance with the instructions of the kit. The Fc-conjugated anti-HLA/NY-ESO-anti-CD3 bispecific molecules diluted to 0.5 g/ml in HBS-EP+(GE Healthcare) to be evaluated were brought into contact therewith at 10 μl/min for 60 seconds for immobilization. Thereafter, the samples were added to the HLA/NY-ESO analytes diluted to various levels with HBS-EP+ at a flow rate of 30 μl/min for 120 seconds and dissociation was assayed for 600 seconds.
# [13] = target: T9, HLA-A*0201/β2-microglobulin/NY-ESO …; experiment: SPR (Biacore T200), scFv captured by anti-His antibody, HLA/NY-ESO as analyte, single cycle kinetics
# Method: With the use of Biacore T200, the anti-HLA/NY-ESO scFv was captured as a ligand to the immobilized anti-His antibody, and the antigen was assayed as an analyte. As the antigen, HLA/NY-ESO prepared in 1)-1 was used. The anti-His antibody (His Capture kit, Cytiva) was immobilized on Sensor Chip CM5 (Cytiva) in accordance with the instructions of the kit. The anti-HLA/NY-ESO scFv constructs diluted to 0.5 μg/ml in HBS-EP+(Cytiva) to be evaluated were brought into contact therewith at 10 μl/min for 60 seconds for immobilization. Thereafter, the samples were added to the HLA/NY-ESO analytes diluted to various levels with HBS-EP+ at a flow rate of 30 μl/min for 120 seconds and dissociation was assayed for 600 seconds.
Binder,"EC50 of cytotoxicity on NCI-H1703 cells (51Cr release, human PBMC effectors) [1] [nM]",standardized gMFI (1F),standardized gMFI (gp100 [2]),standardized gMFI [3],standardized gMFI [4],standardized gMFI [5],standardized gMFI [6],standardized gMFI [7],standardized gMFI (gp100 [8]),standardized gMFI [9],standardized gMFI [10],"EC50 of cytotoxicity on U266B1 cells (51Cr release, human PBMC effectors) [11] [nM]",Kd [12] [nM],Kd [13] [nM]
B1,2.56,0.86,0.53,43.3,0.95,0.7,0.54,0.67,0.54,0.88,44.4,0.96,1.9,
B2,,,,,,,,,,,,,,7.9
